This note sets out measurements from patent publication US7247438.

Experiment [1] has as its target activated thymic caspase (~17 kD subunit) of VSV8-triggered N15 TCRtg RAG-2-/- H-2b mouse thymocytes (mouse). The experiment can be described thus: cell-based or functional assay.
The target of experiment [2] is VSV8/Kb complex (vesicular stomatitis virus; mouse) (UniProt P01887). The experiment can be described thus: cell-based or functional assay.
Experiment [3] deals with mouse CD3ε (mouse) (UniProt P22646). The experiment can be described thus: cell-based or functional assay.
In experiment [4] the target is activated thymic caspase (~17 kD subunit) of VSV8-triggered N15 TCRtg RAG-2-/- H-2b mouse thymocytes (mouse). The experiment can be described thus: preincubation with zVADfmk, competitor biotin-DEVDamk, thymic lysate, streptavidin-HRP blot.

Sequence of VSV8/Kb complex (vesicular stomatitis virus; mouse) (P01901 22-369 limits assumed, chain 2 of 2): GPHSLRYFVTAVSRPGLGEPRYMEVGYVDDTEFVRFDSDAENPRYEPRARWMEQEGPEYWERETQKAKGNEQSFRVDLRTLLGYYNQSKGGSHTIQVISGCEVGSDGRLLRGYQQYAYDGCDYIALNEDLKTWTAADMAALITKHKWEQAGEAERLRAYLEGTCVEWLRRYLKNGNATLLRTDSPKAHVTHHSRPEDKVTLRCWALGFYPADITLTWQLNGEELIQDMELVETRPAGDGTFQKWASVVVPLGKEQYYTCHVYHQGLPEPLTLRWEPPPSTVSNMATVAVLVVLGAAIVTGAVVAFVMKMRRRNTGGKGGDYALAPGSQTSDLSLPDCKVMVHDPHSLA
Sequence of VSV8/Kb complex (vesicular stomatitis virus; mouse) (P01887 21-119 limits assumed, chain 3 of 2): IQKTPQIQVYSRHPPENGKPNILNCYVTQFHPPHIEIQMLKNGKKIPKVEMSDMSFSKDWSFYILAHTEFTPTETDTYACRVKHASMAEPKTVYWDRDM

Consider “N-(Z-Valinylalanyl)aspartic acid methyl ketone, b-methyl ester (peptide)”, for which, in experiment [1], the TdT positive cells per mm2 (TUNEL), FTOC N15tg #1, zVADmk + VSV8 (TdT positive cells / mm2) was determined as 360; the TdT positive cells per mm2 (TUNEL), FTOC N15tg #2, zVADmk + VSV8 (TdT positive cells / mm2) worked out at 525; the TdT positive cells per mm2 (TUNEL), FTOC N15tg #3, zVADmk + VSV8 (TdT positive cells / mm2) stood at 461.

Consider N15 TCR, for which, in experiment [2], the TdT positive cells per mm2 (TUNEL), FTOC N15tg #1, VSV8 (TdT positive cells / mm2) is 429; the TdT positive cells per mm2 (TUNEL), FTOC N15tg #2, VSV8 (TdT positive cells / mm2) was 456; the TdT positive cells per mm2 (TUNEL), FTOC N15tg #3, VSV8 (TdT positive cells / mm2) stood at 441.

“anti-CD3ε specific hamster anti-mouse mAb 145-2C11 (antibody)” had a percent DP thymocytes in C57BL/6 FTOC after 18 hours with 200 mg/ml 2C11 mAb (FACS) in experiment [3] of 37%.

As for “N-benzyloxycarbonyl-Val-Ala-Asp(OMe)-fluoromethylketone (peptide)”, the molar excess over biotin-DEVDamk at which the ~17 kD band is no longer detectable in experiment [4] was 100 to 1000 fold. Besides, in experiment [1], the TdT positive cells per mm2 (TUNEL), FTOC N15tg #1, zVADfmk + VSV8 (TdT positive cells / mm2) was 6; the TdT positive cells per mm2 (TUNEL), FTOC N15tg #2, zVADfmk + VSV8 (TdT positive cells / mm2) was 1; the TdT positive cells per mm2 (TUNEL), FTOC N15tg #3, zVADfmk + VSV8 (TdT positive cells / mm2) was 2.
